Columns and labels:
[1] = target: recombinant human wild-type FVa (UniProt P12259)
[2] = tested on: ^superFVa (recombinant super factor five, thrombin-activated)
[3] = target: ^superFVa (recombinant super factor five, thrombin-activated) (human) (UniProt P12259); assay: cell-based or functional assay
[4] = target: recombinant human wild-type FVa (UniProt P12259); assay: cell-based or functional assay

Sequence of ^superFVa (recombinant super factor five, thrombin-activated) (chain, as listed by the source): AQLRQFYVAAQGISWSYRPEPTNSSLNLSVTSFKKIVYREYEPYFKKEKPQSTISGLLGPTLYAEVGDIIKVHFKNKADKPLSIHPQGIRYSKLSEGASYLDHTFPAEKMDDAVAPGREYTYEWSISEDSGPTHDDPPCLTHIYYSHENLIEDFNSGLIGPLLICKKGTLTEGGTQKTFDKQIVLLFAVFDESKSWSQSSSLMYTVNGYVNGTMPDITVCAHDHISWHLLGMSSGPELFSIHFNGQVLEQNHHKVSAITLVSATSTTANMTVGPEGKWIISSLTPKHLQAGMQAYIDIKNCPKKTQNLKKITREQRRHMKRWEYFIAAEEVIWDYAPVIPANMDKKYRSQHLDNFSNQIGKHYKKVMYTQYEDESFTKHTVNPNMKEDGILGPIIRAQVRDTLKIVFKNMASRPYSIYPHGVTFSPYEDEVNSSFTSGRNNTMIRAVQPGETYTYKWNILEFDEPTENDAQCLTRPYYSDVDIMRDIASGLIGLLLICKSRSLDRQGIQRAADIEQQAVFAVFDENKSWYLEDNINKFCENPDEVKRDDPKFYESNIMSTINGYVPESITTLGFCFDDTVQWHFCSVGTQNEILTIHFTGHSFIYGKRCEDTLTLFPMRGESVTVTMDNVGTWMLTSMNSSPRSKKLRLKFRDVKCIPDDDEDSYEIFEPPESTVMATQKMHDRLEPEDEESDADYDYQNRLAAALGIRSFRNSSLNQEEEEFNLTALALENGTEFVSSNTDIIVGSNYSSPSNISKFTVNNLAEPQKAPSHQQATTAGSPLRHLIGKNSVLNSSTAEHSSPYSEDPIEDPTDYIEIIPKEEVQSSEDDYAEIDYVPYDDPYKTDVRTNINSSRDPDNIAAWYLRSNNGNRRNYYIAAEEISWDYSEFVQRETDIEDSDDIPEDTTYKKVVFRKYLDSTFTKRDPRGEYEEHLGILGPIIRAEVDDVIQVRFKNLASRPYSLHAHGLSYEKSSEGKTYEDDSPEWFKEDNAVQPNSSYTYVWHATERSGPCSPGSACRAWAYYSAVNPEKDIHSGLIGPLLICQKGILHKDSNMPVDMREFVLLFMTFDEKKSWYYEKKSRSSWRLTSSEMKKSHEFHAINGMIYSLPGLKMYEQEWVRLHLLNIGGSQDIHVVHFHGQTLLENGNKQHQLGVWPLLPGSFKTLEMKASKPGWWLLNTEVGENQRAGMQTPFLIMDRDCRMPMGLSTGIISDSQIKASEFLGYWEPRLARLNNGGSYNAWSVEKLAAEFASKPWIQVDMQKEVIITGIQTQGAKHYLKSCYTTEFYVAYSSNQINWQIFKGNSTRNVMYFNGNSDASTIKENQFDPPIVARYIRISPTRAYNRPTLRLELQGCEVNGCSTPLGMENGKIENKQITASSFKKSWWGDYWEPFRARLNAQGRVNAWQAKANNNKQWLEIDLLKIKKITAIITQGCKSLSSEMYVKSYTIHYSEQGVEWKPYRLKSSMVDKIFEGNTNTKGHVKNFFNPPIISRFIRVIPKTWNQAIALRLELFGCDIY

Substance: recombinant human Activated Protein C (Xigris)
- ETP restored in human or murine plasma in the presence of APC [1]: at concentrations where FVa did not show effects
- aPTT in human plasma with APC at 0.05 U/mL FVa variant [1]: FVa shortened the aPTT only from ˜100 to 80 seconds
- aPTT in murine plasma with human APC at 5 U/mL FVa variant [1]: FVa shortened the aPTT only from ˜100 to 70 seconds
- ETP restored in human or murine plasma in the presence of APC [2]: Only ^superFVa restored ETP to ˜90-100% in human or murine plasma at concentrations where FVa did not show effects
- aPTT in human plasma with APC at 0.05 U/mL FVa variant [2]: At 0.05 U/mL FVa variants, ^superFVa fully corrected the aPTT
- aPTT in murine plasma with human APC at 5 U/mL FVa variant [2]: At 5 U/mL FVa variants ^superFVa fully corrected the aPTT
- aPTT normalisation in human plasma with 10 nM APC, concentration relative to FVa [2]: in human plasma ^superFVa normalized the aPTT at 100-fold lower concentrations compared to FVa

Substance: recombinant murine Activated Protein C (from UniProt P33587 42-460) (enzyme)
- ex vivo whole blood aPTT after intravenous APC (0.5 mg/kg) in Balb/c mice [3]: 30 s
- ex vivo whole blood aPTT after intravenous APC (0.5 mg/kg) in Balb/c mice [4]: 50 s
